Data as given in patent US10987431B2, “Preparation method of adiposomes, and use thereof” (Institute Of Biophysics, Chinese Academy Of Sciences, priority 2015, dated 2021).

B1: ATGL: functional protein adipose triacylglycerol lipase, SEQ ID NO: 8 (protein)
chain: MFPREKTWNISFAGCGFLGVYYVGVASCLREHAPFLVANATHIYGASAGALTATALVTGVCLGEAGAKFIEVSKEARKRFLGPLHPSFNLVKIIRSFLLKVLPADSHEHASGRLGISLTRVSDGENVIISHFNSKDELIQANVCSGFIPVYCGLIPPSLQGVRYVDGGISDNLPLYELKNTITVSPFSGESDICPQDSSTNIHELRVTNTSIQFNLRNLYRLSKALFPPEPLVLREMCKQGYRDGLRFLQRNGLLNRPNPLLALPPARPHGPEDKDQAVESAQAEDYSQLPGEDHILEHLPARLNEALLEACVEPTDLLTTLSNMLPVRLATAMMVPYTLPLESALSFTIRLLEWLPDVPEDIRWMKEQTGSICQYLVMRAKRKLGRHLPSRLPEQVELRRVQSLPSVPLSCAAYREALPGWMRNNLSLGDALAKWEECQRQLLLGLFCTNVAFPPEALRMRAPADPAPAPADPASPQHQLAGPAPLLSTPAPEARPVIGALGL
modifications: ATGL protein
B2: MLDS proteins: lipid droplet resident protein of oleaginous bacterium RHA1, SEQ ID NO: 2 (protein)
chain: MTDQKTIDSVKTSLYAAVGAGDVVVQAVADVVAQVRSRAESTQGDVEERVGGAKERIAGLQEEVTEGVENLRDRLAGLPSELPEELAELREKFTADELRKVAEAYLKVASDLYTSLAERGEDTVERIRKQPVVEEGIGRAETAFGDAVELTEEALGTVARQTRAVGEQAAKLAGRASGRISDTAEGLGEAIADAGDEAALKVLDLGDQAEEASKDAADRVTATAADVQARADKAAPAKHAAPAKKAAPAKAAATPAPAPAKKAAAPAKKAAPAKKA
modifications: MLDS protein
B3: Perilipin-2 proteins: lipid droplet resident protein of mammals, SEQ ID NO: 6, expressed with SMT3 tag cleaved by Ulp1 (protein)
chain: MASVAVDPQPSVVTRVVNLPLVSSTYDLMSSAYLSTKDQYPYLKSVCEMAENGVKTITSVAMTSALPIIQKLEPQIAVANTYACKGLDRIEERLPILNQPSTQIVANAKGAVTGAKDAVTTTVTGAKDSVASTITGVMDKTKGAVTGSVEKTKSVVSGSINTVLGSRMMQLVSSGVENALTKSELLVEQYLPLTEEELEKEAKKVEGFDLVQKPSYYVRLGSLSTKLHSRAYQQALSRVKEAKQKSQQTISQLHSTVHLIEFARKNVYSANQKIQDAQDKLYLSWVEWKRSIGYDDTDESHCAEHIESRTLAIARNLTQQLQTTCHTLLSNIQGVPQNIQDQAKHMGVMAGDIYSVFRNAASFKEVSDSLLTSSKGQLQKMKESLDDVMDYLVNNTPLNWLVGPFYPQLTESQNAQDQGAEMDKSSQETQRSEHKTH
modifications: Perilipin-2 protein
B4: MDT-28 proteins: nematode lipid droplet resident protein, SEQ ID NO: 4 (protein)
chain: MTDVEQPVSVEDQQAQAQSYYDQVLGNAYVQTAINAYTKTKEFHPLLNSTLNSAEEKVSTVGNYAAQKAYDGYNSYYVKPKNTAYEAVSYGTERAKTAVESGKQAAIVGGTFGIGAAVVLTQFSLALSAGGAALVLEQVDSAKKLGSSAISTIKEAELAVEHRIFSALHQAQRIAMVPVEKITENTNSLLDILDGAVQKGLNIEVPPSVNLTIGQRVKNLASLIVQGVSNKLFKAHDHVIDPINERARNYLEQLSQSFVLLDIVREKKTWVIEKSNELSTSVFDFKKTLEEEAQKYKVAPEEMLMKHIQSTSEQLSTQLQSLREKGQNVFGDGTKIDSTIDYLENLKKNFTDAEDVYKVRDEVLNEGRQRIAELSTWTTSLLIISAEWQFEPEDLLIEELYFDAPPPVRTRNLYRNRA
modifications: MDT-28 protein

Legend:
adiposome a [1] = test: Recruitment of resident proteins, functional proteins and apolipoprotein to adiposomes (SDS-PAGE, silver staining); type: binding
Experimental: a1, 5 μg SMT3-Perilipin-2 proteins, 25 ng Ulp1 and 500 adiposome a prepared in Example 1 were mixed to obtain 1000 mixed system.
a2, After the step a1 was completed, a mixed system was obtained by incubating at room temperature for 1 h (the practical operation may be performed on ice).
a3, After the step a2 was completed, the mixed system was taken to centrifuge at 20000 g for 5 min, and the liquid phase system presented two layers (the upper layer was adiposomes). The lower solution was drawn out and the upper layer was kept.
a4, The upper layer after the step a3 was resuspended into 1000 buffer B and centrifuged at 20000 g for 5 min, and the liquid phase system presented two layers (the upper layer was adiposomes). The lower solution was drawn out and the upper layer was kept.
a5, The upper layer after the step a4 was resuspended into 1000 buffer B and centrifuged at 20000 g for 5 min, and the liquid phase system presented two layers. The lower solution was drawn out and the upper layer was kept (i.e., adiposomes).
5 μg SMT3-Perilipin-2 proteins, adiposomes obtained in the step a5 and the lower solution drawn in the step a3 were all subjected to SDS-PAGE, followed by silver staining detection.
b1, 5 μg MLDS proteins and 50 μl adiposome a prepared in Example 1 were mixed to obtain 1000 mixed system.
b2, After the step b1 was completed, a mixed system was obtained by incubating at room temperature for 1 h (the practical operation may be performed on ice).
b3, After the step b2 was completed, the mixed system was taken to centrifuge at 20000 g for 5 min, and the liquid phase system presented two layers (the upper layer was adiposomes). The lower solution was drawn out and the upper layer was kept.
b4, The upper layer after the step b3 was resuspended into 1000 buffer B and centrifuged at 20000 g for 5 min, and the liquid phase system presented two layers (the upper layer was adiposomes). The lower solution was drawn out and the upper layer was kept.
b5, The upper layer after the step b4 was resuspended into 1000 buffer B and centrifuged at 20000 g for 5 min, and the liquid phase system presented two layers. The lower solution was drawn out and the upper layer was kept (i.e., adiposomes).
5 μg MLDS proteins, adiposomes obtained in the step b5 and the lower solution drawn in the step b3 were all subjected to SDS-PAGE, followed by silver staining detection.
The MLDS proteins in the step (2) were replaced with MDT-28 proteins, without other changes in other steps. The results were seen from lanes 4, 5 and 6 in FIG. 6 (lane 4 was total proteins (MDT-28 proteins), lane 5 was adiposome recruited proteins, and lane 6 was solution proteins). […] The adiposomes recruited with MDT-28 proteins were named as artificial lipid droplet MDT-28.
The MLDS proteins in the step (2) were replaced with Bovine serum albumin, without other changes in other steps. The results were seen from lanes 11, 12 and 13 in FIG. 6 (lane 11 was total proteins (Bovine serum albumin), lane 12 was adiposome recruited proteins, and lane 13 was solution proteins).
SMT3-Perilipin-2 proteins in the (1) of step 1 were replaced with SMT3-ATGL proteins, and 50 μl adiposome a was replaced with 30 μl adiposome a, without other changes in other steps, to obtain adiposomes recruited with ATGL.
5 μg MLDS proteins in the (2) of step 1 were replaced with 9 μg Apo A-I, without other changes in other steps, to obtain adiposomes recruited with Apo A-I. The results were seen from B in FIG. 10 (lane 1 was adiposome recruited proteins, lane 2 was solution proteins, and lane 3 was total proteins (Apo A-I)). […] The adiposome recruited with Apo A-I was named as artificial lipoprotein Apo A-I.

adiposome a [2] = test: Determination of protein saturation degree on adiposomes; type: binding; details: Western blot
Experimental: Determination of protein saturation degree: SMT3-Perilipin-2 proteins, 25 ng Ulp1 and 30 μl adiposome a prepared in Example 1 were mixed to obtain 50 μl mixed system, and the concentrations of SMT3-Perilipin-2 proteins in the mixed system were 0.015 μg/μl, 0.030 μg/μl, 0.056 μg/μl, 0.080 μg/μl, 0.101 μg/μl, 0.137 μg/μl, 0.166 μg/μl or 0.191 μg/μl. Then, artificial lipid droplets were obtained according to the above steps a2 to a5, and were subjected to SDS-PAGE, followed by staining with colloid blue, or were subjected to Western blot detection using Perilipin-2 antibody as primary antibody. The results were seen from C in FIG. 7 (in which a was the result of colloid blue staining, b was the result of Western blot detection).
Determination of protein saturation degree: SMT3-ATGL proteins, and 500 adiposome a prepared in Example 1 were mixed to obtain 1000 mixed system, and the concentrations of SMT3-ATGL proteins in the mixed system were 0.091 μg/μl, 0.132 μg/μl, 0.171 μg/μl, 0.209 μg/μl, 0.244 μg/μl, 0.278 μg/μl or 0.310 μg/μl. Then artificial lipid droplets were obtained according to the a2 to a5 of step 1, and were subjected to SDS-PAGE, followed by silver staining, or were subjected to Western blot detection using ATGL antibody (Cell Signaling Technology, Danvers, Mass., the product item: 2138) as primary antibody. […]

[3] = incubating at room temperature for 1 h, SDS-PAGE, silver staining

Molecule	proteins recruited to adiposome a (adiposome a [1]; [3])	other results
Apo A-I: apolipoprotein A1 from human, purified per Peitsch et al. 1989	about 50%	
Bovine serum albumin: purchased from Sigma, product item A4612; control protein [reference compound]		recruitment to adiposome a (in words) (adiposome a [1]; [3]): no Bovine serum albumin was recruited
B1		fraction of protein recruited to adiposome a (adiposome a [1]; SMT3-ATGL proteins, 30 μl adiposome a, incubating at normal temperature or 4° C.): about ⅓; protein concentration in the reaction system at which recruitment on adiposomes reached saturation (adiposome a [2]; 0.091-0.310 μg/μl SMT3-ATGL proteins, silver staining): 0.209 µg/µL
B2	about 80%	
B3	about 50%	recruitment on adiposomes, saturation (in words) (adiposome a [2]; 0.015-0.191 μg/μl SMT3-Perilipin-2 proteins, colloid blue staining): saturable
B4	about 90%	
